The labels stand for the following.
B1: PBX1_(1-430), wild-type recombinant [human] / PREP1_(1-436), wild-type recombinant (TR-FIA) [not stated] (parent complex)
chain 1: MDEQPRLMHSHAGVGMAGHPGLSQHLQDGAGGTEGEGGRKQDIGDILQQIMTITDQSLDEAQARKHALNCHRMKPALFNVLCEIKEKTVLSIRGAQEEEPTDPQLMRLDNMLLAEGVAGPEKGGGSAAAAAAAAASGGAGSDNSVEHSDYRAKLSQIRQIYHTELEKYEQACNEFTTHVMNLLREQSRTRPISPKEIERMVSIIHRKFSSIQMQLKQSTCEAVMILRSRFLDARRKRRNFNKQATEILNEYFYSHLSNPYPSEEAKEELAKKCGITVSQVSNWFGNKRIRYKKNIGKFQEEANIYAAKTAVTATNVSAHGSQANSPSTPNSAGSSSSFNMSNSGDLFMSVQSLNGDSYQGAQVGANVQSQVDTLRHVISQTGGYSDGLAASQMYSPQGISANGGWQDATTPSSVTSPTEGPGSVHSDTSN
chain 2: MMATQTLSIDSYQDGQQMQVVTELKTEQDPNCSEPDAEGVSPPPVESQTPMDVDKQAIYRHPLFPLLALLFEKCEQSTQGSEGTTSASFDVDIENFVRKQEKEGKPFFCEDPETDNLMVKAIQVLRIHLLELEKVNELCKDFCSRYIACLKTKMNSETLLSGEPGSPYSPVQSQQIQSAITGTISPQGIVVPASALQQGNVAMATVAGGTVYQPVTVVTPQGQVVTQTLSPGTIRIQNSQLQLQLNQDLSILHQDDGSSKNKRGVLPKHATNVMRSWLFQHIGHPYPTEDEKKQIAAQTNLTLLQVNNWFINARRRILQPMLDSSCSETPKTKKKTAQNRPVQRFWPDSIASGVAQPPPSELTMSEGAVVTITTPVNMNVDSLQSLSSDGATLAVQQVMMAGQSEDESVDSTEEDAGALAPAHISGLVLENSDSLQ

Variants of B1 are the subject of this experiment. Nature of the experiment: TR-FIA; parent: 1; read off a plot.
Regarding chain 1 MDEQPRLMHSHAGVGMAGHPGLSQHLQDGAGGTEGEGGRKQDIGDILQQIMTITDQSLDEAQARKHALNCHRMKPALFNVLCEIKEKTVLSIRGAQEEEPTDPQLMRADNMLLAEGVAGPEKGGGSAAAAAAAAASGGAGSDNSVEHSDYRAKLSQIRQIYHTELEKYEQACNEFTTHVMNLLREQSRTRPISPKEIERMVSIIHRKFSSIQMQLKQSTCEAVMILRSRFLDARRKRRNFNKQATEILNEYFYSHLSNPYPSEEAKEELAKKCGITVSQVSNWFGNKRIRYKKNIGKFQEEANIYAAKTAVTATNVSAHGSQANSPSTPNSAGSSSSFNMSNSGDLFMSVQSLNGDSYQGAQVGANVQSQVDTLRHVISQTGGYSDGLAASQMYSPQGISANGGWQDATTPSSVTSPTEGPGSVHSDTSN [chain 1 L108A], the ratio to parent was around 0.73.
To chain 1 MDEQPRLMHSHAGVGMAGHPGLSQHLQDGAGGTEGEGGRKQDIGDILQQIMTITDQSLDEAQARKHALNCHRMKPALFNVLCEIKEKTVLSIRGAQEEEPTDPQLMRLDNMLAAEGVAGPEKGGGSAAAAAAAAASGGAGSDNSVEHSDYRAKLSQIRQIYHTELEKYEQACNEFTTHVMNLLREQSRTRPISPKEIERMVSIIHRKFSSIQMQLKQSTCEAVMILRSRFLDARRKRRNFNKQATEILNEYFYSHLSNPYPSEEAKEELAKKCGITVSQVSNWFGNKRIRYKKNIGKFQEEANIYAAKTAVTATNVSAHGSQANSPSTPNSAGSSSSFNMSNSGDLFMSVQSLNGDSYQGAQVGANVQSQVDTLRHVISQTGGYSDGLAASQMYSPQGISANGGWQDATTPSSVTSPTEGPGSVHSDTSN [chain 1 L113A] belongs around 0.66.
To chain 1 MDEQPRLMHSHAGVGMAGHPGLSQHLQDGAGGTEGEGGRKQDAGDILQQIMTITDQSLDEAQARKHALNCHRMKPALFNVLCEIKEKTVLSIRGAQEEEPTDPQLMRLDNMLLAEGVAGPEKGGGSAAAAAAAAASGGAGSDNSVEHSDYRAKLSQIRQIYHTELEKYEQACNEFTTHVMNLLREQSRTRPISPKEIERMVSIIHRKFSSIQMQLKQSTCEAVMILRSRFLDARRKRRNFNKQATEILNEYFYSHLSNPYPSEEAKEELAKKCGITVSQVSNWFGNKRIRYKKNIGKFQEEANIYAAKTAVTATNVSAHGSQANSPSTPNSAGSSSSFNMSNSGDLFMSVQSLNGDSYQGAQVGANVQSQVDTLRHVISQTGGYSDGLAASQMYSPQGISANGGWQDATTPSSVTSPTEGPGSVHSDTSN [chain 1 I43A] belongs around 1; to chain 1 MDEQPRLMHSHAGVGMAGHPGLSQHLQDGAGGTEGEGGRKQDIGDILQQIMTATDQSLDEAQARKHALNCHRMKPALFNVLCEIKEKTVLSIRGAQEEEPTDPQLMRLDNMLLAEGVAGPEKGGGSAAAAAAAAASGGAGSDNSVEHSDYRAKLSQIRQIYHTELEKYEQACNEFTTHVMNLLREQSRTRPISPKEIERMVSIIHRKFSSIQMQLKQSTCEAVMILRSRFLDARRKRRNFNKQATEILNEYFYSHLSNPYPSEEAKEELAKKCGITVSQVSNWFGNKRIRYKKNIGKFQEEANIYAAKTAVTATNVSAHGSQANSPSTPNSAGSSSSFNMSNSGDLFMSVQSLNGDSYQGAQVGANVQSQVDTLRHVISQTGGYSDGLAASQMYSPQGISANGGWQDATTPSSVTSPTEGPGSVHSDTSN [chain 1 I53A], around 0.93; to chain 1 MDEQPRLMHSHAGVGMAGHPGLSQHLQDGAGGTEGEGGRKQDIGDALQQIMTITDQSLDEAQARKHALNCHRMKPALFNVLCEIKEKTVLSIRGAQEEEPTDPQLMRLDNMLLAEGVAGPEKGGGSAAAAAAAAASGGAGSDNSVEHSDYRAKLSQIRQIYHTELEKYEQACNEFTTHVMNLLREQSRTRPISPKEIERMVSIIHRKFSSIQMQLKQSTCEAVMILRSRFLDARRKRRNFNKQATEILNEYFYSHLSNPYPSEEAKEELAKKCGITVSQVSNWFGNKRIRYKKNIGKFQEEANIYAAKTAVTATNVSAHGSQANSPSTPNSAGSSSSFNMSNSGDLFMSVQSLNGDSYQGAQVGANVQSQVDTLRHVISQTGGYSDGLAASQMYSPQGISANGGWQDATTPSSVTSPTEGPGSVHSDTSN [chain 1 I46A], around 0.9.
Take chain 1 MDEQPRLMHSHAGVGMAGHPGLSQHLQDGAGGTEGEGGRKQDIGDILQQIMTITDQSLDEAQARKHALNCHRMKPAAFNAACEIKEKTVLSIRGAQEEEPTDPQLMRLDNMLLAEGVAGPEKGGGSAAAAAAAAASGGAGSDNSVEHSDYRAKLSQIRQIYHTELEKYEQACNEFTTHVMNLLREQSRTRPISPKEIERMVSIIHRKFSSIQMQLKQSTCEAVMILRSRFLDARRKRRNFNKQATEILNEYFYSHLSNPYPSEEAKEELAKKCGITVSQVSNWFGNKRIRYKKNIGKFQEEANIYAAKTAVTATNVSAHGSQANSPSTPNSAGSSSSFNMSNSGDLFMSVQSLNGDSYQGAQVGANVQSQVDTLRHVISQTGGYSDGLAASQMYSPQGISANGGWQDATTPSSVTSPTEGPGSVHSDTSN [chain 1 L77A, chain 1 V80A, chain 1 L81A]: the ratio to parent was around 0.34.
Under chain 1 MDEQPRLMHSHAGVGMAGHPGLSQHLQDGAGGTEGEGGRKQDIGDILQQIMTITDQSLDEAQARKHALNCHRMKPALFNVLCEAKEKTVLSIRGAQEEEPTDPQLMRLDNMLLAEGVAGPEKGGGSAAAAAAAAASGGAGSDNSVEHSDYRAKLSQIRQIYHTELEKYEQACNEFTTHVMNLLREQSRTRPISPKEIERMVSIIHRKFSSIQMQLKQSTCEAVMILRSRFLDARRKRRNFNKQATEILNEYFYSHLSNPYPSEEAKEELAKKCGITVSQVSNWFGNKRIRYKKNIGKFQEEANIYAAKTAVTATNVSAHGSQANSPSTPNSAGSSSSFNMSNSGDLFMSVQSLNGDSYQGAQVGANVQSQVDTLRHVISQTGGYSDGLAASQMYSPQGISANGGWQDATTPSSVTSPTEGPGSVHSDTSN [chain 1 I84A] stands around 0.56.
